T1: HA-tagged human AREG (amphiregulin) (human) (UniProt P15514)
T1 sequence (looked up): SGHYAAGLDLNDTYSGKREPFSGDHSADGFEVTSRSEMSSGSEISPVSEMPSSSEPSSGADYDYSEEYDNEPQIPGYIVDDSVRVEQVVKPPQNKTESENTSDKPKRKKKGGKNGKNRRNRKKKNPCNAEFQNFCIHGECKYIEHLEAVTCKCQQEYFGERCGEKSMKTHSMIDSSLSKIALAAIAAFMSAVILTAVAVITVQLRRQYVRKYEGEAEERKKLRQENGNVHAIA

B1: p.I186T: HuWt clone containing the human tylosis missense mutation RHBDF2 p.I186T (protein)
chain: MASADKNGGSVSSVSSSRLQSRKPPNLSITIPPPEKETQAPGEQDSMLPEGFQNRRLKKSQPRTWAAHTTACPPSFLPKRKNPAYLKSVSLQEPRSRWQESSEKRPGFRRQASLSQSIRKGAAQWFGVSGDWEGQRQQWQRRSLHHCSMRYGRLKASCQRDLELPSQEAPSFQGTESPKPCKMPKTVDPLARGRAFRHPEEMDRPHAPHPPLTPGVLSLTSFTSVRSGYSHLPRRKRMSVAHMSLQAAAALLKGRSVLDATGQRCRVVKRSFAFPSFLEEDVVDGADTFDSSFFSKEEMSSMPDDVFESPPLSASYFRGIPHSASPVSPDGVQIPLKEYGRAPVPGPRRGKRIASKVKHFAFDRKKRHYGLGVVGNWLNRSYRRSISSTVQRQLESFDSHRPYFTYWLTFVHVIITLLVICTYGIAPVGFAQHVTTQLVLRNKGVYESVKYIQQENFWVGPSSIDLIHLGAKFSPCIRKDGQIEQLVLRERDLERDSGCCVQNDHSGCIQTQRKDCSETLATFVKWQDDTGPPMDKSDLGQKRTSGAVCHQDPRTCEEPASSGAHIWPDDITKWPICTEQARSNHTGFLHMDCEIKGRPCCIGTKGSCEITTREYCEFMHGYFHEEATLCSQVHCLDKVCGLLPFLNPEVPDQFYRLWLSLFLHAGVVHCLVSVVFQMTILRDLEKLAGWHRIAIIFILSGITGNLASAIFLPYRAEVGPAGSQFGLLACLFVELFQSWPLLERPWKAFLNLSAIVLFLFICGLLPWIDNIAHIFGFLSGLLLAFAFLPYITFGTSDKYRKRALILVSLLAFAGLFAALVLWLYIYPINWPWIEHLTCFPFTSRFCEKYELDQVLH
modifications: left off: small tags and cut ends
B2: Flag-tagged HuCub (human version of cub cDNA; N-terminal-truncated human iRhom2) (enzyme, not shown: small tags and cut ends)
chain: MSSMPDDVFESPPLSASYFRGIPHSASPVSPDGVQIPLKEYGRAPVPGPRRGKRIASKVKHFAFDRKKRHYGLGVVGNWLNRSYRRSISSTVQRQLESFDSHRPYFTYWLTFVHVIITLLVICTYGIAPVGFAQHVTTQLVLRNKGVYESVKYIQQENFWVGPSSIDLIHLGAKFSPCIRKDGQIEQLVLRERDLERDSGCCVQNDHSGCIQTQRKDCSETLATFVKWQDDTGPPMDKSDLGQKRTSGAVCHQDPRTCEEPASSGAHIWPDDITKWPICTEQARSNHTGFLHMDCEIKGRPCCIGTKGSCEITTREYCEFMHGYFHEEATLCSQVHCLDKVCGLLPFLNPEVPDQFYRLWLSLFLHAGVVHCLVSVVFQMTILRDLEKLAGWHRIAIIFILSGITGNLASAIFLPYRAEVGPAGSQFGLLACLFVELFQSWPLLERPWKAFLNLSAIVLFLFICGLLPWIDNIAHIFGFLSGLLLAFAFLPYITFGTSDKYRKRALILVSLLAFAGLFAALVLWLYIYPINWPWIEHLTCFPFTSRFCEKYELDQVLH
B3: HuCub: human RHBDF2 construct mimicking the mutant Rhbdf2cub transcript; N-terminal-truncated iRhom2 (protein)
chain: B2 chain
modifications: left off: small tags and cut ends
notes: human RHBDF2 construct mimicking the mutant Rhbdf2cub transcript; N-terminal-truncated iRhom2

Tests used:
AREG [1] = assay: ELISA of AREG in conditioned medium of transfected 293T cells (in vitro cleavage assay); assay type: cell-based, human
Text: To test whether Rhbdf2^cub, with its short N-terminal domain, could induce secretion of AREG independently of metalloprotease activity, we performed in vitro cleavage assays in the presence or absence of marimastat (MM), a potent broad-spectrum metalloprotease inhibitor that can block both ADAM17- and ADAM10-dependent shedding of substrates. Because of the significant homology between the mouse and human RHBDF2 genes we transfected 293T cells with human AREG either alone or with the human wildtype (HuWt) or human Cub (HuCub) RHBDF2 genes (FIG. 5A), and measured AREG levels in conditioned medium. In the absence of MM, we observed no difference in AREG levels between AREG-expressing and AREG/HuCub co-expressing cells, whereas co-expression of HuWt and AREG reduced AREG levels by ˜60% (FIG. 5B).
(§1) Human AREG, HB-EGF and EGF ELISA: Transient transfections were performed in 293T cells seeded in 24-well plates. Using lipofectamine LTX with Plus reagent 16.5 fmol of HuWt or HuCub was co-transfected with 25 ng of AREG or 50 ng of HB-EGF or 200 ng of EGF. The total amount of transfected DNA was made up to equal amount per well with pCMV6-AC-HA vector. After 24 h, DMSO or 10 μM MM in 1 ml of fresh medium replaced the old medium. After 24 h, 100 μl of supernatant was either undiluted (HB-EGF and EGF) or diluted five-fold (AREG) and subjected to ELISA as per the manufacturer's instructions (DY262, DY259, and DY236).

AREG [2] = assay: Co-immunoprecipitation of iRhom2-AREG complex; assay type: binding, human; settings: COS7 cell lysates, anti-Flag immunoprecipitation
Description: Immunoprecipitation: 293T and COS7 cell transfections were carried according to the manufacturer's instructions (Life technologies). Cells plated in 6 well plates were treated with 400 μls of Cell Lysis Buffer (Cell Signaling, Danvers, Mass.) containing complete mini protease inhibitors (Roche Applied Science, Indianapolis, Ind.), incubated on ice for 10 min and centrifuged at 14,000 g for 10 min in a cold room. Cell supernatant was incubated overnight with 20 μls of magnetic beads conjugated with Anti-DDK antibody (Origene) in a cold room on a rocking platform. Following overnight incubation, beads/slurry was washed with three times with TBS-T, and protein was collected using 2×SDS-PAGE loading buffer.

AREG [3] = assay: Immunoblot of intracellular pro-AREG in co-transfected cells; assay type: cell-based, human; settings: co-expression with AREG, DMSO or 10 μM MM
Description: SDS-PAGE and Immunoblotting: Cells were washed once with ice cold PBS and incubated with RIPA buffer (Cell Signaling, Danvers, Mass.) containing complete mini protease inhibitors (Roche Applied Science, Indianapolis, Ind.) on ice for 10 min. Cell lysate was centrifuged at 14,000 g for 10 min at 4° C. Supernatant was collected and stored at −80° C. until further use. Total amount of protein was quantified using a Qubit Fluorometer (Life technologies), and 10 μg of protein was loaded onto 4-12% pre-cast gels (Lonza, Allendale, N.J.) and run at 140V until the low molecular weight Precision plus protein standard (Bio-Rad) reached the bottom of the gel. Resolved proteins were electrophoretically transferred onto PVDF membranes using an iBLOT (Life technologies) before blocking in 5% BSA (Cell Signaling Technology) in TBST (20 mM Tris, 137 mM sodium chloride, and 0.1% Tween-20) for 1 h at room temperature. Membranes were then incubated overnight at 4° C. in primary antibodies (1:1000) followed by three 15 min washes in TBST and incubation in secondary antibodies (1:2000) for 1 h at room temperature. After another wash in TBST for 90 min, membranes were exposed to SuperSignal West Femto Substrate (Fisher Scientific) for 5 min for detection of horseradish peroxidase generated signal. Membranes were re-probed with actin-specific antibody. […]

[4] = molecular target: T1, HA-tagged human AREG (amphiregulin) (human); assay: cell-based or functional assay
HB-EGF = assay: ELISA of HB-EGF in conditioned medium of transfected 293T cells; assay type: cell-based, human; settings: 10 μM marimastat
Description: as §1

EGF = assay: ELISA of EGF in conditioned medium of transfected 293T cells; assay type: cell-based, human; settings: 10 μM marimastat
Description: as §1

[5] = co-expression with AREG, 10 μM marimastat

Molecule	levels of AREG in conditioned medium compared with HuWt (AREG [1]; [5])	physical complex with AREG (AREG [2])	intracellular levels of AREG compared with HuWt (AREG [3])	AREG levels after co-transfection [4]	AREG levels in conditioned medium (ELISA) of co-transfected 293T cells in the presence of marimastat [4]	secretion of AREG compared with empty vector transfected controls (AREG [1]; 293T cells, 10 μM marimastat)	AREG levels versus AREG-expressing cells (AREG [1]; 293T cells, co-expression with AREG, absence of MM)	secretion of HB-EGF compared with empty vector transfected controls (HB-EGF)	secretion of EGF compared with empty vector transfected controls (EGF)
B1	greater levels of AREG in conditioned medium	forms physical complexes with AREG	lower intracellular levels						
B2				2 to 3 fold	2 fold				
B3	greater levels of AREG in conditioned medium	forms physical complexes with AREG	lower intracellular levels			selectively increased secretion of AREG	no difference	selectively increased secretion of AREG and HB-EGF	not EGF
